Measurements reported in PMC9313494 (2022).

Target: Lys-Nle peptide (norleucine (Nle) residues (Nle12 named); D-residues (D-Lys1, D-Lys8 named); terminal thiol group)
Assay: SPR

koff: 0.00973 s⁻¹
B1: bone morphogenetic protein-2 (BMP-2) (ligand)
chain: QAKHKQRKRLKSSCKRHPLYVDFSDVGWNDWIVAPPGYHAFYCHGECPFPLADHLNSTNHAIVQTLVNSVNSKIPKACCVPTELSAISMLYLDENEKVVLKNYQDMVVEGCGCR
